Assay results published in the nanobody polyreactivity screen of Harvey et al. (2022).

Assay: yeast display, Sf9 membrane polyspecificity reagent, FACS + sequencing; frameworks hold sequencing errors
In short: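 Nanobodies came from a synthetic yeast display library in Saccharomyces cerevisiae BJ5465, induced with galactose for 36–48 hours and stained for 1 hour at 4 °C with 10% biotinylated, detergent-solubilized Sf9 membrane reagent. Cells were enriched on streptavidin microbeads and then FACS-sorted, with low and high (top ~1%) gates set on anti-HA fluorescence for expression and streptavidin fluorescence for reagent binding. Each polyreactivity label reflects the gate a clone came from. Genes were amplified by colony PCR, sequenced by MiSeq 2 × 250 and filtered by CDR length.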

| Sequence | polyreactivity (PSR sort gate) |
| --- | --- |
| QVKHVESGGGLVQAGGSLRLSCAASGFTFYTYAMGWYRQKPGKESELVATISSGGRTNYADSVKGRFTISRDNAKNTVYLQMNSLKPEDTAVYYCYKRHRGGAVRFDSWGQGTQVTVSS | low polyreactivity |
| QGQLVESRGGLVQAGGRLRLSCAASGAIVSKNAMGWYRQAPGKERELVAAISRSAGSTYYADSVKGRFTISRVNAKNTVYLQLHSLKPEDTAVFYCAADWYYWQLWWGEGDYWGQGTQVTVSS | low polyreactivity |
| QVQLVESGGGLVQAGGSLRLSCAASGSTFYPNAMGWYRQAPGKERELVAAIRTRGGSTYYADSVKGRFTISRDNAKNTVYLQMNSLKPEDTAVYYCAAEKRYRKAFDYWGQGTQVTVSS | low polyreactivity |
| QVQLVQSGGGLVQAGGSLRLSCAASGLTNYRYAMGWNRQAPGQEREFVAGISASGGGSSYADSVKGRFTISRDNAKNTVYLQMNRLKPEDTAVYYCAATTTFFVWQGHNYCGQGTQVTVSS | low polyreactivity |
| QVQLVESGGGLVQAGGSLRLSCAASGSIFTSYAMGWYIPAPGKERELVASISGSGGSTYYADSVKGRFTISRDYSMNTVYLQMNRLKPEVTEVYVCANRCYNGWLRRYYYWGQGTNVTVSS | high polyreactivity |
| QVQLVESGGGLVQAGGSLRLSCAASGNIFGNNAMGWYRQAPGKERELVAAISSSGTSTYYADSVKGRFTISRDNAKNTVYFQMNSLKPEDTAVYYCNADPLPYDGYYDYDYWGQGTQVTVSS | low polyreactivity |
| QVQLVESGGGLVQAGGSLRLSCAASGITFWAYAMGWYRPAPGKARELVAAITSGGSTNYADSVKGRFTISRDNAKNTVYLQLNSLKPEDTAVYYCAADWAYYSTALDYWGQGTQVTVSS | low polyreactivity |
| QVQLVESGGGLFQAGGSLRLSCAASGFIFYYNTMGWYRQAPGKERELVAAISSGGRTYYADSVKGRFTISRDNAKNTVYLQMNSLKPEDTAVYYCNVVTYVKYGCWGQGTQVTVSS | high polyreactivity |
| QVQLVESGGGLVQAGGSLRLSCASSGFTLYGYTKGWYRQAPGKERELVAAISGSGGRTYYADSVKGRFTISRDNAKNTVYLHMNTLKPEDNAVYYCAADSRGTCDGYDYWGQGTQVTVSS | high polyreactivity |
| QVQLVESGGGLVQAGGSLRLSCAASGSTFGPNTMGWYRQAPRKERELVAAITSTGSTYYADSVKGRFTISRDNAKNTVYLQMNSLKPEDTAVYYCAARRYYGVYYAFYYWGQGTQVTVSS | high polyreactivity |
| QVQLVESGGGLVQAGGSLRLSCAASRRISHYYAMGWYRQAPGKERALVASIRISGGSTYYADSVKGRFTISRDYAKNTVFLQMNSLKPEDTAVYYCATLGYNWRRLYYWGQGTEVTVSS | high polyreactivity |
| QVQLVESGGGLVQAGGSLRLSCAASGMIFADYVMGWYRQAPGKERELVATINQGGGSTYYADSVKGRFTISRDNAKNTVYLQMNSLKPEDTAVYYCAATWALLYAIFESYDYWGQGTQVTVSS | low polyreactivity |
| QVQLVESGGGLVQAGGSLRLSCAPSGSIFLQYTMGWYRQAPGKERELVAAITESDGSTYYADSVKGRFTISRDNAKNTVYLQMNSLKPEDTAVYYCAADVVYFKYWDKYDYWGQGTQVTVSS | low polyreactivity |
| QVQLVESGGGLVQAGVSLRLSCAASGRTFGYYTMGWSRQAPGKERELVAGISSAGSTNYADSVKGRFTISRDNAKNTVYFQMNSLKPADTAVYDCAARTYKVIQNNSWETYYYWGQGTQVTVSS | high polyreactivity |
| QVQLVESGGGLVQAGGSLRLSCAASGRTFERYAMGWYRQAPGQERELVAGITGRGGRTYYADSVKGRFTISRDNAKNTVYLQRNSLKPEDTAVYYCNKDTWVIHNYRYDYWGQGTQVTVSS | low polyreactivity |
| QVQLVESGGGLVQAGGSLRISCAASGNTFEHNAMGWYRQAPGKERELVAVISKSGGRTYYADSVKGRFTISRDNAKNTVYLQMNSLKPEDTAVYYCAKRSPFITWNGISYVEYDYWGPGTQVTVSS | low polyreactivity |
| QVQLVESGGGLVQAGGSLRLSCAASGYIFKNYAMGWYRQAPGKERELVAAITRRGASTYYADSVKGRFTITRDNAKNTVYLQMNSLKPEDTAVYYCAAYPWPPGEYDYWGQGTQVTVSS | low polyreactivity |
| QVQLVESGGGLVQAGGSLRLSCAASGGTFGVNAMGWYRQAPGKDRELVAAISSSGGRTYYADSVKGRFTISRDNAKNTVYLQMNSLKPEDTAVYYCAARNYFWGQGTQVTVSS | low polyreactivity |
| QVQLVESGGGLVQAGGSLRLSCAASGIILHGYAMGWYRQAAGKEREFVATITVSGSSTYYADSVKGRFTISRDNAKNTVYLQMNSLKPEDTAVYYCAARSWVIVYGLQYDYWGQGTQETVSS | high polyreactivity |
| QVQLVESGGGLVQAGGSLRLSCAASGRNFYRNAMGWSRQAPGKERELVAAITGSGGITYYADSVKGRFTISRDNAKYTVYLQMNRLKPEDTGVYYCNARYYSHRYDYWGQGTQVTVSS | high polyreactivity |
| QVQLVESGRGLVQAGGSLRLSCAASGSISGGNAMGWYRQAPRKARELVAANDYTDDSTYYADSVKGRFTISRDNAKNTVYLQMNSQKPEDTAVYYCAADAYRAQGDYWGQGTQVTVSS | low polyreactivity |
| QVQLVESGGGLVQAGGSLRLSCAASGSTFVVNAMGWYRQAPGKERELVAAIAGGGSTNYADSVKGRFTISRDNAKNTVYLQMNRLKPEDTAVYYCAKDLTQSYEYDYWGQGTQVTVSS | low polyreactivity |

| Sequence | polyreactivity (PSR sort gate) |
| --- | --- |
| QVQLVESGGGIVQAGGSLRLSCAASGFTFYLYAMGWYRQAPGKERELVAAISRSGGYTYYADSVKGRFSISRDNAQNTVYLQMNSLKPEDTAVYYCNARWRSGPRAYDYWGQGTQVTVSS | high polyreactivity |
| QFQLVESVGGLVQAGGSLRISCAASGIIFYSYALGWYREAPGKERELVATISFSGDNTYYADSVKGRFTISRDNAKNTVYLQMNSLKPEDTAVYYCAKDLGYRGRYNYWGQGTQVTVSS | low polyreactivity |
| QVQLVESGGGLVQAGGSLRLSCAASGSIFRYYVMGWYRQAPGKERELVAAINGGGGSTYYADSVKGRFTISRDNAKNTVYLQMNSLKPEDTAVYYCNAVGGTRGKYPYFKYGYWGQGTQVTVSS | high polyreactivity |
| QVQLVESGGGLVQAGGSLRLSCAASGSTFTYYAMGWYRQAPGKERELVAAITSRGGITYYADSVKGRFTISRDNAKNTVYLQMNSLKPEDTAVYYCNAYSQRYGYYYWGQGTQVTVSS | high polyreactivity |
| QVQLVESGGGLVQAGGSLRLSCAASGSTFGFYAMGWYRQAPGKERELVAAISSAARTYYADSVKGRFTISRDNAKNTVYLQMNSLKPEDTAVYYCSAEAYHWTSYIGYGGVYYWGQGTQVTVSS | low polyreactivity |
| QFQLVESGGGLVQAGGSLRLSCAASGRIFRVNAKGWYRPAPGKERELVAGITQGDGSTYYADSVKGRFTISRDNAKNTVYLQMNSLKPEDTAVYYCAASTGPDRQFDSWGQGTQVTVSS | low polyreactivity |
| QVQLVESGGGLVQAGGSLRLSCAASGSTFSTYAMGWDRQAPGKERELVAAIRWSGGSTYYADSVKGRFTISRDNAKNTVYLQMNSLKPEDTAVYNCNAGASYFLVISQSRRDYWGQGTEVTVSS | low polyreactivity |
| QVQLVESGGGLVQAGGSLRLSCAASGRIFRSNAMGWYRQAPGKERELVAVINSDDSTYYADSVKGRFTISRDNAKNTVYLQMNSLKPEDTAVYYCAAEPQYTRHMDSLGQGTQVTVSS | low polyreactivity |
| QVQLVESGGGLVQAGGSLRLSCAASGRIFFAYAMGWYRQAPGKEREFVAAISDNDGSTYYADSVKGRFTISRDNAKNTVYLQMNSLKPEDTAVYYCNADLGYVYDYWGQGTQVTVSS | low polyreactivity |
| QVQLVESGGGLVQAGGRLRLSCAASGRIFGRYAMGWYRQAPGKERELVAAITWTGGTTYYADSVKGRFTISRDNAKNTVYLQMNSLKPEDTAVYYCAARQGYGIYGDYYYWGQGTQVTVSS | high polyreactivity |
| QVQLVESGGGLVQAGGSLRLSCAASGFIFGRYAMGWYRQAPGKERELVARITGIGTRTYYADSVKGRFTISRDNAKNTVYLQMNSLKPEDTAVYYCAVRPFYWGQGTQVTVSS | high polyreactivity |
| QVQLVESGGGLVQAGGSLRLSCAASGITLYFYAMGWYRQAPGKERELVAGISGSVGSTHYADSVKGRFTISRDNAKNTVYLQMNSLKPEDTAVYYCAARYPFLRPKVNYWGQGTQVTVSS | high polyreactivity |
| QVQLVESGRGLVQAGGSLRISCAASGSTFIFNTMGWYRQAPGKEMELVATITGDGRTNYADSVKGRFTISRDNAKNTVYLQMNSLKPEDTAVYYCDADGYDQYPLWSPPGDYWGQGTQVTVSS | low polyreactivity |
| QVQLVESGGGLVQAGGSLRLSCADSGSIFYTYAMGWYRQAPGKEREFVAAITQTGGTTYNADSVKGRFTISRDNAKNTVYFQMNSLKQEDTAVYYCAARYRAYKLYGRHYYWGQGTQVTVSS | high polyreactivity |
| QVQLVESGGGLVQAGGSLRLSCAASGSTFPPYAMGWYRQAPGKERELVAAISNVGSTNYADSVKGRFTISRDNAKNTVYLQMNSLKPEETAVYYCAADFWERFALWGWIYLDYDYWGQGTQVTVSS | low polyreactivity |
| QVQLVESGGGLVQAGGSLRLSCAASGFIFLAYTMGWYRQAPGKERELVAAISASGGRTYYADSVKGRFTISRDNAKNTVYLQMNSLKPEDTAVYYCAAAGGRFIRYGYWGQGTQVTVSS | high polyreactivity |
| QVQLVESGRGLVQAGGSLRLSCAASGYTFGYNAMGWYRQAPGKERELVATNSSGRTTTYADSVKGRFTISRDNAKNNVYLQMNSLKPEDNAGYYCATPVYRSSYEYDYWGQGTQVTVSS | low polyreactivity |
| QVQLVESGGGLVQAGGSLRLSCAASGFIFVYNAMGWYRQAPGKEREFVASITWSGGRTYYADSVKGRFTISRDNAKNTVYLLMNILKPEDTAVYYCATKYPNSQGRRYDYWGKGTQVTVSS | low polyreactivity |
| QVQLVESGGGFVQAGVSLRLSCAASGSIFVVYGMGWYRQAPGKERELVAAISGGITNYADSVKGLFTISRDNAKNTVYLLMNSLKPEDTAVYYCATVDGAYQYTYDYWGQGTQVTVSS | low polyreactivity |
| QVQLVESGGGLVQAGGSLRLSCAASGFIFADYDMGWYRQAPGKERELVDAISWSGGTTYYADSVKGRFTISRDNAKHTVYLQMNSLKPEDTAVYYCAAYWWAVYSVVTGARYVYWGQGTQVTLSS | high polyreactivity |
| QVQLVESGGGLVQAGGSLRLSCAASGSIFPYNDMGWYRQAPGKERELVARITNGGSTNYADSVKGRFTISRDNAKNTVYLQMNSLKPEDTAVYYCNKDGTQEFAPDGHEYWGQGTQVTVSS | low polyreactivity |
